First the molecules themselves.
B1: Receptor-type tyrosine-protein phosphatase T (Homo sapiens), O14522-1 (parent)
chain: MASLAALALSLLLRLQLPPLPGARAQSAAGGCSFDEHYSNCGYSVALGTNGFTWEQINTWEKPMLDQAVPTGSFMMVNSSGRASGQKAHLLLPTLKENDTHCIDFHYYFSSRDRSSPGALNVYVKVNGGPQGNPVWNVSGVVTEGWVKAELAISTFWPHFYQVIFESVSLKGHPGYIAVDEVRVLAHPCRKAPHFLRLQNVEVNVGQNATFQCIAGGKWSQHDKLWLQQWNGRDTALMVTRVVNHRRFSATVSVADTAQRSVSKYRCVIRSDGGSGVSNYAELIVKEPPTPIAPPELLAVGATYLWIKPNANSIIGDGPIILKEVEYRTTTGTWAETHIVDSPNYKLWHLDPDVEYEIRVLLTRPGEGGTGPPGPPLTTRTKCADPVHGPQNVEIVDIRARQLTLQWEPFGYAVTRCHSYNLTVQYQYVFNQQQYEAEEVIQTSSHYTLRGLRPFMTIRLRLLLSNPEGRMESEELVVQTEEDVPGAVPLESIQGGPFEEKIYIQWKPPNETNGVITLYEINYKAVGSLDPSADLSSQRGKVFKLRNETHHLFVGLYPGTTYSFTIKASTAKGFGPPVTTRIATKISAPSMPEYDTDTPLNETDTTITVMLKPAQSRGAPVSVYQLVVKEERLQKSRRAADIIECFSVPVSYRNASSLDSLHYFAAELKPANLPVTQPFTVGDNKTYNGYWNPPLSPLKSYSIYFQALSKANGETKINCVRLATKAPMGSAQVTPGTPLCLLTTGASTQNSNTVEPEKQVDNTVKMAGVIAGLLMFIIILLGVMLTIKRRRNAYSYSYYLSQRKLAKKQKETQSGAQREMGPVASADKPTTKLSASRNDEGFSSSSQDVNGFTDGSRGELSQPTLTIQTHPYRTCDPVEMSYPRDQFQPAIRVADLLQHITQMKRGQGYGFKEEYEALPEGQTASWDTAKEDENRNKNRYGNIISYDHSRVRLLVLDGDPHSDYINANYIDGYHRPRHYIATQGPMQETVKDFWRMIWQENSASIVMVTNLVEVGRVKCVRYWPDDTEVYGDIKVTLIETEPLAEYVIRTFTVQKKGYHEIRELRLFHFTSWPDHGVPCYATGLLGFVRQVKFLNPPEAGPIVVHCSAGAGRTGCFIAIDTMLDMAENEGVVDIFNCVRELRAQRVNLVQTEEQYVFVHDAILEACLCGNTAIPVCEFRSLYYNISRLDPQTNSSQIKDEFQTLNIVTPRVRPEDCSIGLLPRNHDKNRSMDVLPLDRCLPFLISVDGESSNYINAALMDSHKQPAAFVVTQHPLPNTVADFWRLVFDYNCSSVVMLNEMDTAQFCMQYWPEKTSGCYGPIQVEFVSADIDEDIIHRIFRICNMARPQDGYRIVQHLQYIGWPAYRDTPPSKRSLLKVVRRLEKWQEQYDGREGRTVVHCLNGGGRSGTFCAICSVCEMIQQQNIIDVFHIVKTLRNNKSNMVETLEQYKFVYEVALEYLSSF

This note sets out measurements from IntAct's records for PubMed 17360477.

Variants of B1 are the subject of this assay. The note with it: with stat3_human STAT3, P40763.
stat3_human STAT3, P40763, sequence (P40763 whole entry): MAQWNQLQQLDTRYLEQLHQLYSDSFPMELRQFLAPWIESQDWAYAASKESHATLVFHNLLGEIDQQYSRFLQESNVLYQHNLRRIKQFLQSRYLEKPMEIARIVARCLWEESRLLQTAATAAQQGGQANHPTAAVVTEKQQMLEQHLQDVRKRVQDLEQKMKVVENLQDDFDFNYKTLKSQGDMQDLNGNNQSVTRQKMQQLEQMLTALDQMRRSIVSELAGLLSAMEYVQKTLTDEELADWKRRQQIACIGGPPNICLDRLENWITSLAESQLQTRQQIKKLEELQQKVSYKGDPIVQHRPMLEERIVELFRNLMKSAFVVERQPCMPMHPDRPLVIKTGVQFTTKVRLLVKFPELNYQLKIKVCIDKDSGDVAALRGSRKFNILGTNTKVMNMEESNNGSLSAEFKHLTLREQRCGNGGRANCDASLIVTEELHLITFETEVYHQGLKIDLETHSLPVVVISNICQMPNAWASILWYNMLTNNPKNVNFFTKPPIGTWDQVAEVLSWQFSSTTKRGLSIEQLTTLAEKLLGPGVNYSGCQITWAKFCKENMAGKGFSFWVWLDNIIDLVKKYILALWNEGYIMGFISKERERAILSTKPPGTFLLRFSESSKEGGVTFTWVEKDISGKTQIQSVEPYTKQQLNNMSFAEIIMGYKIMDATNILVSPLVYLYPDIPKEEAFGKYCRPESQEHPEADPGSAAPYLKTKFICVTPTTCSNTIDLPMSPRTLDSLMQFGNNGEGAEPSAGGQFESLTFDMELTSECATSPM
As for D1074A, the “effect of a mutation on the interaction” value was “increasing interaction strength”.

Consider D1074A;C1106S, for which the “effect of a mutation on the interaction” value is “increasing interaction strength”.
